The target of the experiment is Manduca sexta CAD repeat 12 (CR12) fragment. Briefly: ELISA. The following applies: plates coated with 0.5 μg of CR12, read off a plot. In general terms: ELISA stands for enzyme-linked immunosorbent assay.

As to “Cry1Ab activated toxin (from UniProt P0A370) G439D”, the response (Absorbance 490 nm) runs as follows: (25 nM activated toxin mixed with PxHsp90 at a 1:30 ratio (toxin to chaperone), parent measured without PxHsp90, parent: est. 1.2) 0.58; (25 nM activated toxin, no PxHsp90, parent: est. 1.2) 0.44; (50 nM activated toxin mixed with PxHsp90 at a 1:30 ratio (toxin to chaperone), parent measured without PxHsp90, parent: est. 1.6) 0.77; (50 nM activated toxin, no PxHsp90, parent: est. 1.6) 0.48; (100 nM activated toxin mixed with PxHsp90 at a 1:30 ratio (toxin to chaperone), parent measured without PxHsp90, parent: est. 1.7) 1.1; (100 nM activated toxin, no PxHsp90, parent: est. 1.7) 0.66.

On to “Cry1Ab protoxin (from UniProt P0A370) G439D”, for which the response (Absorbance 490 nm) is, setting by setting: (25 nM protoxin mixed with PxHsp90 at a 1:30 ratio (protoxin to chaperone), parent measured without PxHsp90, parent: est. …) 0.82; (25 nM protoxin, no PxHsp90, parent: est. 0.86) 0.44; (50 nM protoxin mixed with PxHsp90 at a 1:30 ratio (protoxin to chaperone), parent measured without PxHsp90, parent: est. …) 1.2; (50 nM protoxin, no PxHsp90, parent: est. 0.95) 0.47; (100 nM protoxin mixed with PxHsp90 at a 1:30 ratio (protoxin to chaperone), parent measured without PxHsp90, parent: est. …) 1.6; (100 nM protoxin, no PxHsp90, parent: est. 1.2) 0.52.

(Values after paper PMC6879724.)
